Reference: patent US20080044413A1 (published 2008)

Key:
[1] = molecular target: T1, cynomolgus EphA2 (cynomolgus, UniProt Q1KL86 24-976); test: flow cytometry on cynomolgus EphA2 transfected CHO cells, antibody 10 µg/ml, AlexaFluor 488 anti-mouse or anti-human IgG (H+L)
T1 construct: whole, on cells; also called cynomolgus EphA2 expressed on transfected CHO cells
Protocol: Subconfluent monolayers of SW480 colon carcinoma or cynomolgus EphA2 transfected CHO cells were quickly trypsinized, washed, counted, plated into 96-well round bottom plates, and stained with 10 μg/ml of a negative control antibody (R347), the anti-human EphA2 murine antibody, EA2 (Coffman 2003), or humanized antibodies, 3F2 and 4H5. Cells were resuspended in AlexaFluor 488 anti-mouse or anti-human IgG H+L (Invitrogen) and then analyzed by flow cytometry using a FACSCalibur (Becton Dickinson).

[2] = molecular target: T2, Human EphA2-Fc fusion protein (human, UniProt P29317 24-537); test: method and format of the clone not stated in this paragraph (framework shuffling)
T2 construct: extracellular domain; Expressed in HEK 293 cells; Biotinylated in the capture ELISAs; also called soluble EphA2 Fc fusion protein; not shown: Fc portion of a human IgG1

[3] = molecular target: T2, Human EphA2-Fc fusion protein; test: SPR (Biacore 3000), soluble IgG on immobilized EphA2-Fc
[4] = molecular target: T2, Human EphA2-Fc fusion protein; test: method not stated in this paragraph (framework shuffling)
[5] = molecular target: T3, human EphA2 (human, UniProt P29317 24-976); test: cell-based or functional assay
[6] = molecular target: T3, human EphA2; test: cell-based or functional assay; remark: listed apart in the source
[7] = molecular target: T4, soluble CD3εγ (human, UniProt P07766 23-118; P09693 23-103); test: SPR, immobilized soluble CD3εγ surface; estimate, biphasic association
T4 construct: Amine-coupled to a CM5 chip

[8] = molecular target: T3, human EphA2; test: cell-based or functional assay; remark: listed apart in the source
[9] = molecular target: T2, Human EphA2-Fc fusion protein; test: SPR (Biacore 3000), EphA2 Fc fusion protein immobilized on CM5, BiTE as analyte
Source text: (§1) The formation and dissociation of BiTE/EphA2 complexes was monitored by surface plasmon resonance using a Biacore 3000 system. For this purpose, EphA2 Fc fusion protein was immobilized on a sensor chip with a CM5 carboxymethylated dextran matrix. Optimal immobilization conditions were identified through pH scouting (sodium acetate pH 4.0 to pH 5.5; disodium tetraborate pH 8.5). The optimal pH value was pH 4.0. After immobilization of 1000 RU to flow cell 2, 5,000 RU to flow cell 3 and 400 RU to flow cell 4, excess reactive groups were deactivated by ethanolamine. The affinity of the anti-EphA2 BiTE to immobilized EphA2 was determined by injecting different concentrations of the analyte deimmunized anti-CD3×EA2 VHVL diluted in HBS-EP buffer. To regenerate the surface, REGEN buffer (50 mM NaOH; 20 mM MES; 1 mM NaCl pH 6.4) was used.

[10] = molecular target: T3, human EphA2; test: cell-based or functional assay; remark: listed apart in the source
[11] = molecular target: T2, Human EphA2-Fc fusion protein; test: SPR, immobilized EphA2-Fc surface; (MedI)
[12] = molecular target: T3, human EphA2; test: cell-based or functional assay; remark: listed apart in the source
[13] = molecular target: T2, Human EphA2-Fc fusion protein; test: SPR, immobilized EphA2-Fc surface; (MT)
Source text: as §1

[14] = molecular target: T3, human EphA2; test: cell-based or functional assay; remark: listed apart in the source

T1 sequence (Q1KL86 24-976): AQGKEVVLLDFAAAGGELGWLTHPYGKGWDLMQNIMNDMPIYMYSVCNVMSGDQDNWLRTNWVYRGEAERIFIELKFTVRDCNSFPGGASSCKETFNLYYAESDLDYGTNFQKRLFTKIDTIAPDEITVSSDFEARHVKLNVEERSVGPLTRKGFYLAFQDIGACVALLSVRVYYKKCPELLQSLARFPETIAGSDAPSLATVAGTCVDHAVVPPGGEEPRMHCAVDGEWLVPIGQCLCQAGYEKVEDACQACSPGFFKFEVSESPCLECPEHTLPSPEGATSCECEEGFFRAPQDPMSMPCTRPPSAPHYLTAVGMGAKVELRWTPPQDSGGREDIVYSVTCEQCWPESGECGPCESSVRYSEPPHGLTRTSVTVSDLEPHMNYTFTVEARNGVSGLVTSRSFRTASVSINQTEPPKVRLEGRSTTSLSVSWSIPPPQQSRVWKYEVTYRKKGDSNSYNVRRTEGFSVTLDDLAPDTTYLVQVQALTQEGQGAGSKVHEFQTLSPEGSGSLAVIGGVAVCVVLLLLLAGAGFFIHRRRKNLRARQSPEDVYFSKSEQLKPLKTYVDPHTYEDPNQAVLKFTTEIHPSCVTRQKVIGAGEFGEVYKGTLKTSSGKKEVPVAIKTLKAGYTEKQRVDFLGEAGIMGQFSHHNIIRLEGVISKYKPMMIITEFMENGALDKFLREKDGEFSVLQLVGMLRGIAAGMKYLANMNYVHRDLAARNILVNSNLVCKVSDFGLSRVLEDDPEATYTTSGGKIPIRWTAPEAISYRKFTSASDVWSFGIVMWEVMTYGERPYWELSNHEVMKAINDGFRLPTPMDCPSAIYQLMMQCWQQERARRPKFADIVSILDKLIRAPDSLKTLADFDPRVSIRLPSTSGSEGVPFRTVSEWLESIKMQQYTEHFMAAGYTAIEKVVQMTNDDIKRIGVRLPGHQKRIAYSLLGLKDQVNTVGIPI

B1: humanized anti-human EphA2 mAb 4H5 (antibody, V domains shown)
VH: QVQLLESGGGLVQPGGSLRLSCAASGFTFSSYTMSWVRQAPGQALEWMGTISSGGTYTYYPDSVKGRFTISRDNAKNSLYLQMNSLRAEDTAVYYCAREAIFTYWGRGTLVTVSS
VL: DIQLTQSPSSLSASVGDRVTITCKASQDINNYLSWYQQKPGQAPRLLIYRANRLVDGVPDRFSGSGYGTDFTLTINNIESEDAAYYFCLKYDVFPYTFGQGTKVEIK
notes: Humanized from EA2 by framework shuffling; detected with anti-human IgG; also called humanized clone 4H5
[1]
  binding result: binds
[2]
  fold increase of affinity compared with chimaeric Fab EA2: ~20 fold

B2: Humanized 2G6 (antibody, human IgG1, V domains shown)
VH: EVQLVESGGGVVRPGGSLRLSCAASGFTVSDYSMNWVRQAPGKGLEWIGFIRNKANDYTTEYSASVKGRFTISRDDSKNTLYLQMNSLKTEDTAVYYCTTYPRYHAMDSWGQGTMVTVSS
VL: AIQLTQSPSSLSASVGDRVTITCRASQSISNNLHWYLQKPGQSPQLLIYYVFQSISGVPSRFSGSGSGTDFTLTISSLQPEDFATYYCQQSNSWPLTFGGGTKLEIK
notes: Framework-shuffled humanized B233; human IgG1 with human kappa chain in the Biacore analysis
[3]
  Kd: 3 nM
  koff: 0.00019 s⁻¹
  kon: 64000 M⁻¹ s⁻¹
[4]
  fold loss of affinity compared with chimaeric mAb B233: ~10 fold

B3: EphA2-BiTE deimmunized anti-CD3 (VH/VL) × EA2 (VH/VL) (bispecific antibody)
chain: DVQLVQSGAEVKKPGASVKVSCKASGYTFTRYTMHWVRQAPGQGLEWIGYINPSRGYTNYADSVKGRFTITTDKSTSTAYMELSSLRSEDTATYYCARYYDDHYCLDYWGQGTTVTVSSGEGTSTGSGGSGGSGGADDIVLTQSPATLSLSPGERATLSCRASQSVSYMNWYQQKPGKAPKRWIYDTSKVASGVPARFSGSGSGTDYSLTINSLEAEDAATYYCQQWSSNPLTFGGGTKVEIKSGGGGSDVKLVESGGGLVKPGGSLKLSCAASGFTFSSYTMSWVRQTPEKRLEWVATISSGGTYTYYPDSVKGRFTISRDNAKNTLYLQMSSLKSEDTAMYYCTREAIFTYWGQGTLVTVSSGGGGSGGGGSGGGGSDIKMTQSPSSMYASLGERVTITCKASQDINNYLSWFQQKPGKSPKTLIYRANRLVDGVPSRFSGSGSGQDYSLTISSLEYEDMGIYYCLKYDEFPYTFGGGTKLEIKHHHHHH
notes: C-terminal His tag; Purified monomer from CHO cells; also called deimmunized anti-CD3×EA2 (VH/VL); deimmunized anti-CD3-EA2(VH/VL)
[5]
  EC 50 of lysis, 51Cr release, B16 F10 EphA2 transfected cells, stimulated human CD8 T-cells, E:T 10:1, 18 h: 21.7 ng/mL
[6]
  EC50 of redirected lysis, 51Cr release, A549: 123 ng/mL
  EC50 of redirected lysis, 51Cr release, A549, second experiment: 24.8 ng/mL
  EC50 of redirected lysis, 51Cr release, MDA MB231: 5.8 ng/mL
  EC50 of redirected lysis, 51Cr release, MDA MB231, second experiment: 8.6 ng/mL
[7]
  Kd: 400 to 500 nM
[8]
  EC50 of redirected lysis, A549, PBMC effectors, batch 040507PMa02: 32.8 ng/mL
  EC50 of redirected lysis, A549, PBMC effectors, batch 040907USy02: 10.2 ng/mL
  EC50 of redirected lysis, A549, stimulated CD8 T-cells, batch 040507PMa02: 3.3 ng/mL
  EC50 of redirected lysis, A549, stimulated CD8 T-cells, batch 040907USy02: 1.6 ng/mL
  EC50 of redirected lysis, MDA MB 231, PBMC effectors, batch 040507PMa02: 7.6 ng/mL
  EC50 of redirected lysis, MDA MB 231, PBMC effectors, batch 040907USy02: 3.2 ng/mL
  EC50 of redirected lysis, MDA MB 231, stimulated CD8 T-cells, batch 040507PMa02: 0.7 ng/mL
  EC50 of redirected lysis, MDA MB 231, stimulated CD8 T-cells, batch 040907USy02: 0.5 ng/mL
[9]
  Kd: 44.6 nM
  koff: 0.0426 s⁻¹
  kon: 956000 M⁻¹ s⁻¹
[10]
  EC50 of tumor cell killing, ACHN cells: 3 ng/mL
  EC50 of tumor cell killing, Caki 2 cells: 30 ng/mL
  EC50 of tumor cell killing, DU145 cells: 0.8 ng/mL
  EC50 of tumor cell killing, PC3 cells: 6 ng/mL
  EC50 of tumor cell killing, SW480 cells: 6 ng/mL
  median EC50 of tumor cell killing, SW480 targets, 49 donors: 24 ng/mL
[11]
  Kd: 113 nM
[12]
  EC50 of cytotoxic activity, 51Cr release, MDA-MB231 target cells, NK cell-depleted PBMC, E:T 10:1, 18 h; BiTE diluted directly before assay in medium (control): 1.9 ng/mL
  EC50 of cytotoxic activity, 51Cr release, MDA-MB231 target cells, NK cell-depleted PBMC, E:T 10:1, 18 h; BiTE diluted directly before assay in plasma (control): 2 ng/mL
  EC50 of cytotoxic activity, 51Cr release, MDA-MB231 target cells, NK cell-depleted PBMC, E:T 10:1, 18 h; BiTE kept 24 h in plasma at 4° C. before the assay: 2.2 ng/mL
  EC50 of cytotoxic activity, 51Cr release, MDA-MB231 target cells, NK cell-depleted PBMC, E:T 10:1, 18 h; BiTE kept 24 h in plasma at 37° C. before the assay: 3.1 ng/mL
[13]
  Kd: 45 nM
[14]
  EC50 of redirected lysis, A549, NK cell-depleted PBMC of Donor #1: 20.9 ng/mL
  EC50 of redirected lysis, A549, NK cell-depleted PBMC of Donor #2: 22.6 ng/mL
  EC50 of redirected lysis, A549, NK cell-depleted PBMC of Donor #3: 24.8 ng/mL
  EC50 of redirected lysis, A549, NK cell-depleted PBMC of Donor #4: 28.5 ng/mL
  EC50 of redirected lysis, A549, NK cell-depleted PBMC of Donor #6: 32.8 ng/mL
  EC50 of redirected lysis, A549, NK cell-depleted PBMC of Donor #7: 6.6 ng/mL
  EC50 of redirected lysis, MDA-MB 231, NK cell-depleted PBMC of Donor #1: 15.4 ng/mL
  EC50 of redirected lysis, MDA-MB 231, NK cell-depleted PBMC of Donor #2: 5.8 ng/mL
  EC50 of redirected lysis, MDA-MB 231, NK cell-depleted PBMC of Donor #3: 8.6 ng/mL
  EC50 of redirected lysis, MDA-MB 231, NK cell-depleted PBMC of Donor #4: 23.9 ng/mL
  EC50 of redirected lysis, MDA-MB 231, NK cell-depleted PBMC of Donor #5: 1.9 ng/mL
  EC50 of redirected lysis, MDA-MB 231, NK cell-depleted PBMC of Donor #6: 7.6 ng/mL
  EC50 of redirected lysis, MDA-MB 231, NK cell-depleted PBMC of Donor #7: 3.2 ng/mL
